From patent publication US20240270846A1 (published 2024)
Residue numbers refer to the chain shown, from its start. Numbers in names are those of the source.

B1: CE115HA000 N54Y one-arm antibody (antibody, human IgG1, kappa, L234A L235A, N297A, name in Kabat numbering)
heavy: QVQLVESGGGVVQPGRSLRLSCAASGFTFSNAWMHWVRQAPGKGLEWVAQIKAKSNYYATYYAESVKGRFTISRDDSKNSLYLQMNSLKTEDTAVYYCRYVHYGAYYGVDAWGQGTTVTVSSASTKGPSVFPLAPSSKSTSGGTAALGCLVKDYFPEPVTVSWNSGALTSGVHTFPAVLQSSGLYSLSSVVTVPSSSLGTQTYICNVNHKPSNTKVDKKVEPKSCDKTHTCPPCPAPEAAGGPSVFLFPPKPKDTLMISRTPEVTCVVVDVSHEDPEVKFNWYVDGVEVHNAKTKPREEQYASTYRVVSVLTVLHQDWLNGKEYKCKVSNKALPAPIEKTISKAKGQPREPQVYTLPPSRCELTKNQVSLSCAVKGFYPSDIAVEWESNGQPENNYKTTPPVLDSDGSFFLVSKLTVDKSRWQQGNVFSCSVMHEALHNHYTQKSLSLSPDYKDDDDK
chain: EPKSSDKTHTCPPCPAPELLGGPSVFLFPPKPKDTLMISRTPEVTCVVVDVSHEDPEVKFNWYVDGVEVHNAKTKPREEQYNSTYRVVSVLTVLHQDWLNGKEYKCKVSNKALPAPIEKTISKAKGQPREPQVCTLPPSRDELTKNQVSLWCLVKGFYPSDIAVEWESNGQPENNYKTTPPVLDSDGSFFLYSKLTVDKSRWQQGNVFSCSVMHEALHNRYTQKSLSLSP
light: DIVMTQSPLSLPVTPGEPASISCRSSQSLVHSNRNTYLHWYQQKPGQAPRLLIYKVSNRFSGVPDRFSGSGSGTDFTLKISRVEAEDVGVYYCGQGTQVPYTFGQGTKLEIKRTVAAPSVFIFPPSDEQLKSGTASVVCLLNNFYPREAKVQWKVDNALQSGNSQESVTEQDSKDSTYSLSSTLTLSKADYEKHKVYACEVTHQGLSSPVTKSFNRGEC
notes: one-arm antibody (one Fab)
B2: CE115HA000 V100cP one-arm antibody (antibody, human IgG1, kappa, L234A L235A, N297A, name in Kabat numbering)
heavy: B1 heavy with Y57N, V109P
chain: B1 chain
light: B1 light
notes: one-arm antibody (one Fab)
B3: CE115HA000 Y100G one-arm antibody (antibody, human IgG1, kappa, L234A L235A, N297A, name in Kabat numbering)
heavy: B1 heavy with Y57N, Y106G
chain: B1 chain
light: B1 light
notes: one-arm antibody (one Fab)
B4: CE115HA000 Q105E one-arm antibody (antibody, human IgG1, kappa, L234A L235A, N297A, name in Kabat numbering)
heavy: B1 heavy with Y57N, Q114E
chain: B1 chain
light: B1 light
notes: one-arm antibody (one Fab)
B5: CE115HA000 Y55S one-arm antibody (antibody, human IgG1, kappa, L234A L235A, N297A, name in Kabat numbering)
heavy: B1 heavy with Y57N, Y58S
chain: B1 chain
light: B1 light
notes: one-arm antibody (one Fab)
B6: CE115HA000 Y58S one-arm antibody (antibody, human IgG1, kappa, L234A L235A, N297A, name in Kabat numbering)
heavy: B1 heavy with Y57N, Y61S
chain: B1 chain
light: B1 light
notes: one-arm antibody (one Fab)
B7: CE115HA000 N76S one-arm antibody (antibody, human IgG1, kappa, L234A L235A, N297A, name in Kabat numbering)
heavy: B1 heavy with Y57N, N79S
chain: B1 chain
light: B1 light
notes: one-arm antibody (one Fab)
B8: CE115HA000 V95K one-arm antibody (antibody, human IgG1, kappa, L234A L235A, N297A, name in Kabat numbering)
heavy: B1 heavy with Y57N, V101K
chain: B1 chain
light: B1 light
notes: one-arm antibody (one Fab)
B9: CE115HA000 Y97S one-arm antibody (antibody, human IgG1, kappa, L234A L235A, N297A, name in Kabat numbering)
heavy: B1 heavy with Y57N, Y103S
chain: B1 chain
light: B1 light
notes: one-arm antibody (one Fab)
B10: CE115HA000 V95S one-arm antibody (antibody, human IgG1, kappa, L234A L235A, N297A, name in Kabat numbering)
heavy: B1 heavy with Y57N, V101S
chain: B1 chain
light: B1 light
notes: one-arm antibody (one Fab)
B11: CE115HA000 S74P one-arm antibody (antibody, human IgG1, kappa, L234A L235A, N297A, name in Kabat numbering)
heavy: B1 heavy with Y57N, S77P
chain: B1 chain
light: B1 light
notes: one-arm antibody (one Fab)
B12: CE115HA000 Y100A one-arm antibody (antibody, human IgG1, kappa, L234A L235A, N297A, name in Kabat numbering)
heavy: B1 heavy with Y57N, Y106A
chain: B1 chain
light: B1 light
notes: one-arm antibody (one Fab)
B13: CE115HA000 Y58L one-arm antibody (antibody, human IgG1, kappa, L234A L235A, N297A, name in Kabat numbering)
heavy: B1 heavy with Y57N, Y61L
chain: B1 chain
light: B1 light
notes: one-arm antibody (one Fab)
B14: CE115HA000 V100cD one-arm antibody (antibody, human IgG1, kappa, L234A L235A, N297A, name in Kabat numbering)
heavy: B1 heavy with Y57N, V109D
chain: B1 chain
light: B1 light
notes: one-arm antibody (one Fab)
B15: CE115HA000 Y58N one-arm antibody (antibody, human IgG1, kappa, L234A L235A, N297A, name in Kabat numbering)
heavy: B1 heavy with Y57N, Y61N
chain: B1 chain
light: B1 light
notes: one-arm antibody (one Fab)
B16: CE115HA000 V95D one-arm antibody (antibody, human IgG1, kappa, L234A L235A, N297A, name in Kabat numbering)
heavy: B1 heavy with Y57N, V101D
chain: B1 chain
light: B1 light
notes: one-arm antibody (one Fab)
B17: CE115HA000 Y97P one-arm antibody (antibody, human IgG1, kappa, L234A L235A, N297A, name in Kabat numbering)
heavy: B1 heavy with Y57N, Y103P
chain: B1 chain
light: B1 light
notes: one-arm antibody (one Fab)
B18: CE115HA000 T57N one-arm antibody (antibody, human IgG1, kappa, L234A L235A, N297A, name in Kabat numbering)
heavy: B1 heavy with Y57N, T60N
chain: B1 chain
light: B1 light
notes: one-arm antibody (one Fab)
B19: CE115HA000 V95A one-arm antibody (antibody, human IgG1, kappa, L234A L235A, N297A, name in Kabat numbering)
heavy: B1 heavy with Y57N, V101A
chain: B1 chain
light: B1 light
notes: one-arm antibody (one Fab)
B20: CE115HA000 Y100K one-arm antibody (antibody, human IgG1, kappa, L234A L235A, N297A, name in Kabat numbering)
heavy: B1 heavy with Y57N, Y106K
chain: B1 chain
light: B1 light
notes: one-arm antibody (one Fab)
B21: CE115HA000 Y100D one-arm antibody (antibody, human IgG1, kappa, L234A L235A, N297A, name in Kabat numbering)
heavy: B1 heavy with Y57N, Y106D
chain: B1 chain
light: B1 light
notes: one-arm antibody (one Fab)
B22: CE115HA000 V95G one-arm antibody (antibody, human IgG1, kappa, L234A L235A, N297A, name in Kabat numbering)
heavy: B1 heavy with Y57N, V101G
chain: B1 chain
light: B1 light
notes: one-arm antibody (one Fab)
B23: CE115HA000 Y97R one-arm antibody (antibody, human IgG1, kappa, L234A L235A, N297A, name in Kabat numbering)
heavy: B1 heavy with Y57N, Y103R
chain: B1 chain
light: B1 light
notes: one-arm antibody (one Fab)
B24: CE115HA000 V95E one-arm antibody (antibody, human IgG1, kappa, L234A L235A, N297A, name in Kabat numbering)
heavy: B1 heavy with Y57N, V101E
chain: B1 chain
light: B1 light
notes: one-arm antibody (one Fab)
B25: CE115HA000 Y59S one-arm antibody (antibody, human IgG1, kappa, L234A L235A, N297A, name in Kabat numbering)
heavy: B1 heavy with Y57N, Y62S
chain: B1 chain
light: B1 light
notes: one-arm antibody (one Fab)
B26: CE115HA000 N82aD one-arm antibody (antibody, human IgG1, kappa, L234A L235A, N297A, name in Kabat numbering)
heavy: B1 heavy with Y57N, N86D
chain: B1 chain
light: B1 light
notes: one-arm antibody (one Fab)
B27: CE115HA000 S77T one-arm antibody (antibody, human IgG1, kappa, L234A L235A, N297A, name in Kabat numbering)
heavy: B1 heavy with Y57N, S80T
chain: B1 chain
light: B1 light
notes: one-arm antibody (one Fab)
B28: CE115HA000 V100cE one-arm antibody (antibody, human IgG1, kappa, L234A L235A, N297A, name in Kabat numbering)
heavy: B1 heavy with Y57N, V109E
chain: B1 chain
light: B1 light
notes: one-arm antibody (one Fab)
B29: CE115HA000 Y58Q one-arm antibody (antibody, human IgG1, kappa, L234A L235A, N297A, name in Kabat numbering)
heavy: B1 heavy with Y57N, Y61Q
chain: B1 chain
light: B1 light
notes: one-arm antibody (one Fab)
B30: CE115HA000 Y97G one-arm antibody (antibody, human IgG1, kappa, L234A L235A, N297A, name in Kabat numbering)
heavy: B1 heavy with Y57N, Y103G
chain: B1 chain
light: B1 light
notes: one-arm antibody (one Fab)
B31: CE115HA000 S62P one-arm antibody (antibody, human IgG1, kappa, L234A L235A, N297A, name in Kabat numbering)
heavy: B1 heavy with Y57N, S65P
chain: B1 chain
light: B1 light
notes: one-arm antibody (one Fab)
B32: CE115HA000 Y97A one-arm antibody (antibody, human IgG1, kappa, L234A L235A, N297A, name in Kabat numbering)
heavy: B1 heavy with Y57N, Y103A
chain: B1 chain
light: B1 light
notes: one-arm antibody (one Fab)
B33: CE115HA000 Y97D one-arm antibody (antibody, human IgG1, kappa, L234A L235A, N297A, name in Kabat numbering)
heavy: B1 heavy with Y57N, Y103D
chain: B1 chain
light: B1 light
notes: one-arm antibody (one Fab)

Each binder was assayed against T1, CD3 epsilon homodimer protein (UniProt P07766 23-126) (assay: SPR Biacore T200, CD3 epsilon homodimer on CM4 chip, antibody as analyte;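 also: Amine-coupled CD3 epsilon homodimer, run at 25 °C in HBS-EP+ buffer, ratio is bound amount of each single-residue H chain variant over that of the parent antibody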).
T1 construct: Immobilized on Sensor chip CM4 by amine coupling; construct not described; also called CD3 (CD3 epsilon)
T1 sequence (P07766 23-126): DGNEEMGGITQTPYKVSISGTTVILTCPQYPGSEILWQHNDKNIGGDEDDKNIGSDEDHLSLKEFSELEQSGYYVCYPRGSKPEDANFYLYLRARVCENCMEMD

Binder	ratio of amounts bound (Y/X vs CE115HA000)
B1	1.09
B2	0.2
B3	1.07
B4	0.94
B5	0.26
B6	0.18
B7	0.92
B8	0.64
B9	0.18
B10	0.22
B11	0.91
B12	0.9
B13	0.27
B14	0.44
B15	0.33
B16	0.24
B17	0.11

Binder	ratio of amounts bound (Y/X vs CE115HA000)
B18	0.97
B19	0.11
B20	1.07
B21	0.52
B22	0.19
B23	0.27
B24	0.24
B25	0.94
B26	0.73
B27	0.9
B28	0.46
B29	0.19
B30	0.18
B31	1
B32	0.16
B33	0.24
